Experimental findings from patent publication US20170165373A1 are described below.

This assay deals with human BCMA (huBCMA), full length, on cells (human) (UniProt Q02223). Briefly: cell-based or functional assay.
Chain of human BCMA (huBCMA), full length, on cells (human) (Q02223 whole entry N81S): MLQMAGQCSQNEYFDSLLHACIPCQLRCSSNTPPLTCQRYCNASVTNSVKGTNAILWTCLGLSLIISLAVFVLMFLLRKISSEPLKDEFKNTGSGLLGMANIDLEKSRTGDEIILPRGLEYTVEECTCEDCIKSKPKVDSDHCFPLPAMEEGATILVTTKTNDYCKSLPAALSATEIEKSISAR

B1: 29C12-MCC-DM1 (antibody drug conjugate) (protein)
VH: EVQLLESGGALVQPGGSLRLSCAASGFTFSSYAMNWVRQAPGKGLEWVSAISVGGDTYYADSVKGRFTISRDNSKNTLYLQMNSLRAEDTAVYYCAKDQVTMVRGVWYYYGLDVWGQGTTVTVSS
VL: DIVMIQSPLSLPVTPGEPASISCRSSQSLLHSNGNNYLDWYLQKPGQSPHLLISLGSNRTSGVPDRFSGSGSGTDFTLKISRVEAEDVGVYYCMQALQPPRRFGQGTKLEIKR
B1 registered an H929 cell growth inhibition IC50 (CellTiter-Glo, 96 h) of 0.39 nM.
